# Source: patent publication US20190248888A1, “METHODS OF LOWERING BLOOD GLUCOSE LEVELS” (Regeneron Pharmaceuticals, Inc., priority 2016, published 2019)
# B1: α-GCGR: potent monoclonal GCGR blocking antibody, HCVR/LCVR SEQ ID NOs: 86/88 (antibody, V domains shown)
# VH: EVQLVESGGGLVQPGGSLRLSCAASGFTFSNYLMNWVRQAPGKGLEWLANIQEDGIEKYYVDSVKGRFTISRDNAKNSLYLQMNSLRAEDTAVYYCAREPSHYDILTGYDYYYGMDVWGQGTTVTVS
# VL: DIQMTQSPSSLSASVGDRVTITCRASQGIRNDLGWYQQKPGKAPKRLIYAASSLQSGVPSRFSGSGSGTEFILTVSSLQPEDFATYYCLQYNSNPFTFGPGTKVDIK
# System: isolated pancreatic islets from mice
# Experiment: RNAseq gene expression in isolated pancreatic islets of GCGR antibody treated mice (Table 5)
# Format: in vivo, mouse
# Settings: isolated islets, 10 mg/kg, 21 days
# Description: Mouse islets were isolated by density gradient separation after perfusing pancreas with Liberase TL (Roche, Indianapolis) through the common bile duct. Following a 13 min digestion at 37° C., the pancreas solution was washed and filtered through a 400-μm wire mesh strainer and islets were separated by Histopaque gradient centrifugation (Sigma-Aldrich). Isolated islets were cultured overnight in RPMI-1640 medium supplemented with 10% (v/v) FBS, 10 mM HEPES, 50 μM β-mercaptoethanol, 1.0 mM sodium-pyruvate, 100 U/mL penicillin and 100 μg/mL streptomycin at 37° C. with a 5% CO2 in air atmosphere.
# Total RNA was purified from all samples using MagMAX™-96 for Microarrays Total RNA Isolation Kit (Ambion by Life Technologies) according to manufacturer's specifications. Genomic DNA was removed using MagMAX™Turbo™DNase Buffer and TURBO DNase from the MagMAX kit listed above (Ambion by Life Technologies). mRNA was purified from total RNA using Dynabeads® mRNA Purification Kit (Invitrogen). Strand-specific RNA-seq libraries were prepared using ScriptSeq™ mRNA-Seq Library Preparation Kit (Epicentre). Twelve-cycle PCR was performed to amplify libraries. Sequencing was performed on Illumina HiSeq®2000 (Illumina) by multiplexed single-read run with 33 cycles.
# Raw sequence data (BCL files) were converted to FASTQ format via Illumina Casava 1.8.2. Reads were decoded based on their barcodes and read quality was evaluated with FastQC (http://www.bioinformatics.babraham.ac.uk/projects/fastqc/). Reads were mapped to the mouse transcriptome (NCBI GRCh37) using CLC Genomics Workbench Version 7.0 (CLCbio) or TopHat2 (Version 2.0.10) allowing two mismatches. Reads mapped to the exons of a gene were summed at the gene level. To identify differentially expressed genes, the statistical significance (p-value) of the differential expressions was assessed with DESeq package (version 1.6 or 2.0). […]
molecule,measurement,setting,value
B1,1700086L19Rik RPKM,gene 1700086L19Rik,119.24 RPKM
same,1810011O10Rik RPKM,gene 1810011O10Rik,5.88 RPKM
same,1810041L15Rik RPKM,gene 1810041L15Rik,3.14 RPKM
same,4930539E08Rik RPKM,gene 4930539E08Rik,5.64 RPKM
same,9030617O03Rik RPKM,gene 9030617O03Rik,5.31 RPKM
same,AW551984 RPKM,gene AW551984,5.27 RPKM
same,Acta1 RPKM,gene Acta1,1.05 RPKM
same,Agpat4 RPKM,gene Agpat4,4.89 RPKM
same,Agt RPKM,gene Agt,22.33 RPKM
same,Ang RPKM,gene Ang,69.38 RPKM
same,Ano1 RPKM,gene Ano1,1.26 RPKM
same,Anxa3 RPKM,gene Anxa3,11.67 RPKM
same,Anxa13 RPKM,gene Anxa13,0.65 RPKM
same,Apoa2 RPKM,gene Apoa2,10.76 RPKM
same,Apod RPKM,gene Apod,2.75 RPKM
same,Apol7a RPKM,gene Apol7a,0.28 RPKM
same,Arg1 RPKM,gene Arg1,59.62 RPKM
same,Arx RPKM,gene Arx,6.42 RPKM
same,Asb11 RPKM,gene Asb11,1.00 RPKM
same,Avpr1b RPKM,gene Avpr1b,4.45 RPKM
same,Basp1 RPKM,gene Basp1,11.31 RPKM
same,Blnk RPKM,gene Blnk,3.87 RPKM
same,Bok RPKM,gene Bok,1.31 RPKM
same,Car9 RPKM,gene Car9,0.79 RPKM
same,Cdc42ep1 RPKM,gene Cdc42ep1,1.77 RPKM
same,Clec2d RPKM,gene Clec2d,9.10 RPKM
same,Clic6 RPKM,gene Clic6,0.26 RPKM
same,Clu RPKM,gene Clu,481.69 RPKM
same,Cnih2 RPKM,gene Cnih2,1.98 RPKM
same,Cobl RPKM,gene Cobl,2.27 RPKM
same,Ctse RPKM,gene Ctse,1.73 RPKM
same,Dbpht2 RPKM,gene Dbpht2,27.59 RPKM
same,Dmbt1 RPKM,gene Dmbt1,10.80 RPKM
same,Dpp6 RPKM,gene Dpp6,8.00 RPKM
same,Drc1 RPKM,gene Drc1,4.67 RPKM
same,Eda2r RPKM,gene Eda2r,1.98 RPKM
same,Eef1a2 RPKM,gene Eef1a2,35.85 RPKM
same,Ehf RPKM,gene Ehf,10.90 RPKM
same,Etv1 RPKM,gene Etv1,33.99 RPKM
same,F5 RPKM,gene F5,1.71 RPKM
same,Ffar4 RPKM,gene Ffar4,5.88 RPKM
same,Fgd3 RPKM,gene Fgd3,0.83 RPKM
same,Fgl2 RPKM,gene Fgl2,37.91 RPKM
same,Gamt RPKM,gene Gamt,0.58 RPKM
same,Gbp8 RPKM,gene Gbp8,7.39 RPKM
same,Gbp9 RPKM,gene Gbp9,4.03 RPKM
same,Gc RPKM,gene Gc,153.00 RPKM
same,Gcg RPKM,gene Gcg,63254.16 RPKM
same,Gcnt4 RPKM,gene Gcnt4,3.02 RPKM
same,Gfra1 RPKM,gene Gfra1,3.43 RPKM
same,Gfra3 RPKM,gene Gfra3,8.18 RPKM
same,Gm609 RPKM,gene Gm609,6.28 RPKM
same,Gm20554 RPKM,gene Gm20554,2.33 RPKM
same,Gng2 RPKM,gene Gng2,7.35 RPKM
same,Gpr119 RPKM,gene Gpr119,15.35 RPKM
same,Gpx3 RPKM,gene Gpx3,638.48 RPKM
same,Hspb1 RPKM,gene Hspb1,10.32 RPKM
same,Ifih1 RPKM,gene Ifih1,10.68 RPKM
same,Igsf23 RPKM,gene Igsf23,0.40 RPKM
same,Irx1 RPKM,gene Irx1,5.96 RPKM
same,Irx2 RPKM,gene Irx2,8.92 RPKM
same,Itgb4 RPKM,gene Itgb4,1.65 RPKM
same,Jchain RPKM,gene Jchain,74.91 RPKM
same,Kcna2 RPKM,gene Kcna2,0.81 RPKM
same,Kcnab3 RPKM,gene Kcnab3,2.28 RPKM
same,Kcnf1 RPKM,gene Kcnf1,0.86 RPKM
same,Kcnk3 RPKM,gene Kcnk3,8.14 RPKM
same,Klb RPKM,gene Klb,4.59 RPKM
same,Klhl13 RPKM,gene Klhl13,5.34 RPKM
same,Krt19 RPKM,gene Krt19,26.52 RPKM
same,Krt20 RPKM,gene Krt20,0.65 RPKM
same,Krt23 RPKM,gene Krt23,2.17 RPKM
same,Lamb3 RPKM,gene Lamb3,1.16 RPKM
same,Mafb RPKM,gene Mafb,24.19 RPKM
same,Mamld1 RPKM,gene Mamld1,5.64 RPKM
same,Mapk13 RPKM,gene Mapk13,2.86 RPKM
same,Matn2 RPKM,gene Matn2,2.36 RPKM
same,Ndst4 RPKM,gene Ndst4,6.30 RPKM
same,Necab2 RPKM,gene Necab2,7.29 RPKM
same,Nefm RPKM,gene Nefm,6.35 RPKM
same,Npr1 RPKM,gene Npr1,3.07 RPKM
same,Nptxr RPKM,gene Nptxr,4.03 RPKM
same,Nsg2 RPKM,gene Nsg2,3.49 RPKM
same,Ntn1 RPKM,gene Ntn1,0.65 RPKM
same,Nudt11 RPKM,gene Nudt11,8.49 RPKM
same,Nyap1 RPKM,gene Nyap1,3.82 RPKM
same,Ocrl RPKM,gene Ocrl,37.04 RPKM
same,Oit1 RPKM,gene Oit1,4.78 RPKM
same,Olfm3 RPKM,gene Olfm3,3.59 RPKM
same,Oxtr RPKM,gene Oxtr,7.25 RPKM
same,Pdk4 RPKM,gene Pdk4,25.17 RPKM
same,Peg10 RPKM,gene Peg10,17.17 RPKM
same,Pla2g2d RPKM,gene Pla2g2d,5.69 RPKM
same,Ptf1a RPKM,gene Ptf1a,0.52 RPKM
same,Ptprd RPKM,gene Ptprd,4.67 RPKM
same,Ptprg RPKM,gene Ptprg,3.12 RPKM
same,Rasd1 RPKM,gene Rasd1,10.12 RPKM
same,Rbms3 RPKM,gene Rbms3,2.38 RPKM
same,Rbp4 RPKM,gene Rbp4,210.71 RPKM
same,Rcn1 RPKM,gene Rcn1,12.75 RPKM
same,Rragb RPKM,gene Rragb,33.15 RPKM
same,Sema3e RPKM,gene Sema3e,2.28 RPKM
same,Serpinb6b RPKM,gene Serpinb6b,1.59 RPKM
same,Serpine2 RPKM,gene Serpine2,10.10 RPKM
same,Serping1 RPKM,gene Serping1,82.99 RPKM
same,Sftpd RPKM,gene Sftpd,4.65 RPKM
same,Sgce RPKM,gene Sgce,10.55 RPKM
same,Sh2d4a RPKM,gene Sh2d4a,0.65 RPKM
same,Sh3bgr RPKM,gene Sh3bgr,3.39 RPKM
same,Slc38a3 RPKM,gene Slc38a3,0.79 RPKM
same,Slc38a5 RPKM,gene Slc38a5,52.26 RPKM
same,Smarca1 RPKM,gene Smarca1,15.49 RPKM
same,Spns2 RPKM,gene Spns2,0.98 RPKM
same,St8sia1 RPKM,gene St8sia1,2.35 RPKM
same,Syt16 RPKM,gene Syt16,2.26 RPKM
same,Tead2 RPKM,gene Tead2,2.17 RPKM
same,Tesc RPKM,gene Tesc,4.72 RPKM
same,Tmsb15b1 RPKM,gene Tmsb15b1,28.28 RPKM
same,Tspan1 RPKM,gene Tspan1,1.40 RPKM
same,Ttr RPKM,gene Ttr,5356.49 RPKM
same,Vnn1 RPKM,gene Vnn1,0.42 RPKM
same,Vwde RPKM,gene Vwde,5.37 RPKM
same,Wfdc16 RPKM,gene Wfdc16,5.87 RPKM
same,Wnk3 RPKM,gene Wnk3,9.33 RPKM
